Measurements published in IntAct's records for PubMed 19287395.

B1: Telomeric repeat-binding factor 2 (Homo sapiens), Q15554 (parent)
chain: MAAGAGTAGPASGPGVVRDPAASQPRKRPGREGGEGARRSDTMAGGGGSSDGSGRAAGRRASRSSGRARRGRHEPGLGGPAERGAGEARLEEAVNRWVLKFYFHEALRAFRGSRYGDFRQIRDIMQALLVRPLGKEHTVSRLLRVMQCLSRIEEGENLDCSFDMEAELTPLESAINVLEMIKTEFTLTEAVVESSRKLVKEAAVIICIKNKEFEKASKILKKHMSKDPTTQKLRNDLLNIIREKNLAHPVIQNFSYETFQQKMLRFLESHLDDAEPYLLTMAKKALKSESAASSTGKEDKQPAPGPVEKPPREPARQLRNPPTTIGMMTLKAAFKTLSGAQDSEAAFAKLDQKDLVLPTQALPASPALKNKRPRKDENESSAPADGEGGSELQPKNKRMTISRLVLEEDSQSTEPSAGLNSSQEAASAPPSKPTVLNQPLPGEKNPKVPKGKWNSSNGVEEKETWVEEDELFQVQAAPDEDSTTNITKKQKWTVEESEWVKAGVQKYGEGNWAAISKNYPFVNRTAVMIKDRWRTMKRLGMN
partner: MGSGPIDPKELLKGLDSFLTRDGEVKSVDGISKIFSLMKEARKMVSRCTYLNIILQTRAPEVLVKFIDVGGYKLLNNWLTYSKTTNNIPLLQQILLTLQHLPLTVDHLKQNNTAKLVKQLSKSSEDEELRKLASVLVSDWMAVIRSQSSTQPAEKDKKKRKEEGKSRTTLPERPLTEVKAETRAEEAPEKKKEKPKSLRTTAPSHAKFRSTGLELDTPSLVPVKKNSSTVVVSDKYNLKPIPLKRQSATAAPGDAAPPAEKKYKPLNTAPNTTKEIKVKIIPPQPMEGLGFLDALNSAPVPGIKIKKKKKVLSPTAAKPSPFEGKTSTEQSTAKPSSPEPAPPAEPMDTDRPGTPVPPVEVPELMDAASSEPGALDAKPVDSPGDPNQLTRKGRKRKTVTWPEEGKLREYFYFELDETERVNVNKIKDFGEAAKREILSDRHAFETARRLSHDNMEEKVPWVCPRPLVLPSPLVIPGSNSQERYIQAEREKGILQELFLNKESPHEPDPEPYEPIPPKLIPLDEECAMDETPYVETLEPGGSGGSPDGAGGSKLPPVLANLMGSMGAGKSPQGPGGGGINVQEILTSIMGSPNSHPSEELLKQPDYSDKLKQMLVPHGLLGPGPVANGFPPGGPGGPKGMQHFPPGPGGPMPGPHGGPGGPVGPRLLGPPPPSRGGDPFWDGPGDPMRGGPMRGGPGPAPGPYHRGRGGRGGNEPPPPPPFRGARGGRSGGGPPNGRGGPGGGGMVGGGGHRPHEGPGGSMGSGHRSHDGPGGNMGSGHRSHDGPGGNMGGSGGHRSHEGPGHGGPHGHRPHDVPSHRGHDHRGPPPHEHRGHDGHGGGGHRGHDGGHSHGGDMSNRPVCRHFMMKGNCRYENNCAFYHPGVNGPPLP
B2: Microcephalin (Homo sapiens), Q8NEM0 (parent)
chain: MAAPILKDVVAYVEVWSSNGTENYSKTFTTQLVDMGAKVSKTFNKQVTHVIFKDGYQSTWDKAQKRGVKLVSVLWVEKCRTAGAHIDESLFPAANMNEHLSSLIKKKRKCMQPKDFNFKTPENDKRFQKKFEKMAKELQRQKTNLDDDVPILLFESNGSLIYTPTIEINSRHHSAMEKRLQEMKEKRENLSPTSSQMIQQSHDNPSNSLCEAPLNISRDTLCSDEYFAGGLHSSFDDLCGNSGCGNQERKLEGSINDIKSDVCISSLVLKANNIHSSPSFTHLDKSSPQKFLSNLSKEEINLQRNIAGKVVTPDQKQAAGMSQETFEEKYRLSPTLSSTKGHLLIHSRPRSSSVKRKRVSHGSHSPPKEKCKRKRSTRRSIMPRLQLCRSEDRLQHVAGPALEALSCGESSYDDYFSPDNLKERYSENLPPESQLPSSPAQLSCRSLSKKERTSIFEMSDFSCVGKKTRTVDITNFTAKTISSPRKTGNGEGRATSSCVTSAPEEALRCCRQAGKEDACPEGNGFSYTIEDPALPKGHDDDLTPLEGSLEEMKEAVGLKSTQNKGTTSKISNSSEGEAQSEHEPCFIVDCNMETSTEEKENLPGGYSGSVKNRPTRHDVLDDSCDGFKDLIKPHEELKKSGRGKKPTRTLVMTSMPSEKQNVVIQVVDKLKGFSIAPDVCETTTHVLSGKPLRTLNVLLGIARGCWVLSYDWVLWSLELGHWISEEPFELSHHFPAAPLCRSECHLSAGPYRGTLFADQPAMFVSPASSPPVAKLCELVHLCGGRVSQVPRQASIVIGPYSGKKKATVKYLSEKWVLDSITQHKVCAPENYLLSQ
B3: Serine/threonine-protein phosphatase 1 regulatory subunit 10 (Mus musculus), Q80W00 (parent)
chain: B1 partner
B4: TERF1-interacting nuclear factor 2 (Homo sapiens), Q9BSI4 (parent)
chain: MATPLVAGPAALRFAAAASWQVVRGRCVEHFPRVLEFLRSLRAVAPGLVRYRHHERLCMGLKAKVVVELILQGRPWAQVLKALNHHFPESGPIVRDPKATKQDLRKILEAQETFYQQVKQLSEAPVDLASKLQELEQEYGEPFLAAMEKLLFEYLCQLEKALPTPQAQQLQDVLSWMQPGVSITSSLAWRQYGVDMGWLLPECSVTDSVNLAEPMEQNPPQQQRLALHNPLPKAKPGTHLPQGPSSRTHPEPLAGRHFNLAPLGRRRVQSQWASTRGGHKERPTVMLFPFRNLGSPTQVISKPESKEEHAIYTADLAMGTRAASTGKSKSPCQTLGGRALKENPVDLPATEQKENCLDCYMDPLRLSLLPPRARKPVCPPSLCSSVITIGDLVLDSDEEENGQGEGKESLENYQKTKFDTLIPTLCEYLPPSGHGAIPVSSCDCRDSSRPL

Variants of: B1
Details: with pp1ra_mouse Ppp1r10, Q80W00

Row | effect of a mutation on the interaction | Variant
1 | disrupting interaction strength | F162A

Variants of: B2
Details: with terf2_human TERF2, Q15554

Row | effect of a mutation on the interaction | Variant
2 | disrupting interaction | Y330A;L332A

Variants of: B3
Details: with terf2_human TERF2, Q15554

Row | effect of a mutation on the interaction | Variant
3 | disrupting interaction | Y236A;L238A

Variants of: B4
Details: with terf2_human TERF2, Q15554

Row | effect of a mutation on the interaction | Variant
4 | decreasing interaction | MATPLVAGPAALRFAAAASWQVVRGRCVEHFPRVLEFLRSLRAVAPGLVRYRHHERLCMGLKAKVVVELILQGRPWAQVLKALNHHFPESGPIVRDPKATKQDLRKILEAQETFYQQVKQLSEAPVDLASKLQELEQEYGEPFLAAMEKLLFEYLCQLEKALPTPQAQQLQDVLSWMQPGVSITSSLAWRQYGVDMGWLLPECSVTDSVNLAEPMEQNPPQQQRLALHNPLPKAKPGTHLPQGPSSRTHPEPLAGRHANAAPLGRRRVQSQWASTRGGHKERPTVMLFPFRNLGSPTQVISKPESKEEHAIYTADLAMGTRAASTGKSKSPCQTLGGRALKENPVDLPATEQKENCLDCYMDPLRLSLLPPRARKPVCPPSLCSSVITIGDLVLDSDEEENGQGEGKESLENYQKTKFDTLIPTLCEYLPPSGHGAIPVSSCDCRDSSRPL [F258A;L260A]
